Patent publication US20040001839A1, “Multimers - isolated molecules comprising epitopes containing sulfated moieties, antibodies to such epitopes, and uses thereof” (priority 2000, published 2004)
No end group written: not given here. *: point of attachment. sulfate = O=S(=O)(O)*

B1: Y1-biotag tetramers with streptavidin-PE (protein, part only; not given: streptavidin-PE carrier, not shown: another chain or arm of the molecule; large carriers; small tags and cut ends)
scFv 1: MEVQLVESGGGVVRPGGSLRLSCAASGFTFDDYGMSWVRQAPGKGLEWVSGINWNGGSTGYADSVKGRFTISRDNAKNSLYLQMNSLRAEDTAVYYCARMRAPVIWGQGTLVTVSRGGGGSGGGGSGGGGSSELTQDPAVSVALGQTVRITCQGDSLRSYYASWYQQKPGQAPVLVIYGKNNRPSGIPDRFSGSSSGNTASLTITGAQAEDEADYYCNSRDSSGNHVVFGGGTKLTVLGGGGLNDIFEAQKIEWHE
scFv 2: B1 scFv 1
scFv 3: B1 scFv 1
scFv 4: B1 scFv 1
modifications: Each chain pos 251: Lys of the BirA tag carries biotin, written K. The four chains are held non-covalently on streptavidin conjugated to phycoerythrin, which is not given.
B2: P-1-S (peptide)
peptide: GDEGDTDLY(sulfate)DY(sulfate)Y(sulfate)PEEDTE

Experiments:
[1] = molecular target: T1, PSGL-1 on KG-1 cells (human) (UniProt Q14242); assay: FACS, KG-1 cells
T1 sequence (sulfated tyrosine residues at the N-terminal site, looked up): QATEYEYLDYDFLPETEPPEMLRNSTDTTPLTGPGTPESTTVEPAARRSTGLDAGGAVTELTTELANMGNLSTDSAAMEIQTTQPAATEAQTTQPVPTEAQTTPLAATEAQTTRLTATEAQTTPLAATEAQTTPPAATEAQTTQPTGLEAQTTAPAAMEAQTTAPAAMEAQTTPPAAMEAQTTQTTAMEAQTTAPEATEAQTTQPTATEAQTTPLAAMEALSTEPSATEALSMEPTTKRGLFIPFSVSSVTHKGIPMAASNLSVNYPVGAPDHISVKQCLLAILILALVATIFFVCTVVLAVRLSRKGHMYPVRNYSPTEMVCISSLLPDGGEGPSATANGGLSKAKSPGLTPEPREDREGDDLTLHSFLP

[2] = molecular target: T1, PSGL-1 on KG-1 cells (human); assay: FACS on KG-1 cells
[3] = molecular target: T1, PSGL-1 on KG-1 cells (human); assay: FACS, KG-1 cells, 5 ng tetramers
[4] = molecular target: Y1 scFv; assay: competition ELISA: Y1 0.25 µg/well preincubated with peptide at 25 µM, residual binding to glycocalicin; conditions: remark: other sources report otherwise
[5] = molecular target: Y1 scFv; assay: competition ELISA: Y1 0.25 µg/well preincubated with peptide at 2.5 µM, residual binding to glycocalicin; conditions: remark: other sources report otherwise
[6] = molecular target: Y1 scFv; assay: competitive FACS: Y1-scFv 1 µg preincubated with peptide at 200 µM, residual binding to washed platelets; conditions: remark: other sources report otherwise
[7] = molecular target: Y1 scFv; assay: competition ELISA: Y1 0.25 µg/well preincubated with peptide at 0.5 µM, residual binding to glycocalicin; conditions: remark: other sources report otherwise
[8] = molecular target: Y1 scFv; assay: competitive FACS: Y1-scFv 1 µg preincubated with peptide at 2.5 µM, residual binding to washed platelets; conditions: remark: other sources report otherwise
[9] = molecular target: Y1 scFv; assay: competition ELISA: Y1 0.25 µg/well preincubated with peptide at 200 µM, residual binding to glycocalicin; conditions: remark: other sources report otherwise

Y1 scFv, sequence (chain, as listed by the source): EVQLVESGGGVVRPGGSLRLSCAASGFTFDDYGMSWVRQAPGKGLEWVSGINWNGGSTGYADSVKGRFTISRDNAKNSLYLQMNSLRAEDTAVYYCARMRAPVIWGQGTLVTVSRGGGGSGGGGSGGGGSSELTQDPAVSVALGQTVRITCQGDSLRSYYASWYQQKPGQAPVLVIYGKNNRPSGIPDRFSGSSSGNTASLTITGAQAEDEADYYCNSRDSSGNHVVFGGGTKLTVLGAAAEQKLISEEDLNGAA

| Binder | fold more reactive [1] [fold] | fold increase in sensitivity of the binding [2] [fold] | fold higher response than other Y1 antibody forms [3] [fold] | Residual Binding of Y1 (% of baseline) [4] [%] | Residual Binding of Y1 (% of baseline) [5] [%] | Residual Binding of Y1 (% of baseline) (Geo Mean) [6] [%] | Residual Binding of Y1 (% of baseline) [7] [%] | Residual Binding of Y1 (% of baseline) (Geo Mean) [8] [%] | Residual Binding of Y1 (% of baseline) [9] [%] |
| --- | --- | --- | --- | --- | --- | --- | --- | --- | --- |
| B1 | > 100 | > 100 | 10 to 20 | – | – | – | – | – | – |
| B2 | – | – | – | 25 | 62 | 5 | 89 | 41 | 0 |
